Experimental data: US20230035659A1, “Compositions and Methods for TTR Gene Editing and Treating ATTR Amyloidosis Comprising a Corticosteroid or Use Thereof” (Intellia Therapeutics, Inc., priority 2019, published 2023)
Strand notation (5' to 3'): a small letter for the sugar, then the base; units joined by * are phosphorothioate-linked, units joined directly phosphodiester-linked; [ ] holds rarer units or linkages, { } end groups; capitals alone tell only the bases. m = 2'-O-methyl; r = 2'-OH (RNA)

Key:
[1] = test system: TTR; assay: TTR editing dose response (EC50, maximum editing) in primary human hepatocytes treated with LNP formulated U-depleted Spy Cas9 mRNA and sgRNAs; assay type: cell-based; details: LNP formulated U-depleted Spy Cas9 mRNA and human specific sgRNAs, dose response
Summary of the method: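 Primary human hepatocytes, plated 24 h earlier, got LNPs carrying Cas9 mRNA and sgRNA, preincubated 5 min in medium with 6% cyno serum. Dosing was an 8-point 3-fold series from 300 ng mRNA. At 72 h, NGS read indel/substitution frequency at the target, giving EC50 and maximum percent editing.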

[2] = test system: TTR mRNA; assay: TTR mRNA knockdown (quantitative PCR) in primary human hepatocytes treated with LNPs; assay type: cell-based; details: PHH; LNP dose 300 ng mRNA cargo; gRNA:mRNA 1:2; 96 h; biological triplicates; vs untreated control
Protocol: In one experiment, PHH were cultured and treated with LNPs comprising Cas9 mRNA (SEQ ID NO:1) and a gRNA of interest (See FIG. 29, Table 36), as described in Example 4. The LNPs were prepared using the cross-flow procedure described above and purified and concentrated using PD-10 columns and Amicon centrifugal filter units, respectively. The LNPs were formulated with an N:P ratio of 6.0 and contained Lipid A, Cholesterol, DSPC, and PEG2k-DMG in a 50:38:9:2 molar ratio, respectively. The LNPs comprised a gRNA:mRNA ratio of 1:2, and the cells were treated at a dose of 300 ng (with respect to the amount of mRNA cargo delivered).
(§1) Ninety-six (96) hours following LNP treatment (with biological triplicates for each condition), mRNA was purified from PHH cells using the Dynabeads mRNA DIRECT Kit (ThermoFisher Scientific) according to the manufacturer's protocol. Reverse Transcription (RT) was performed with Maxima reverse transcriptase (ThermoFisher Scientific) and a poly-dT primer. The resulting cDNA was purified with Ampure XP Beads (Agencourt). For Quantitative PCR, 2% of the purified cDNA was amplified with Taqman Fast Advanced Mastermix and 3 Taqman probe sets, TTR (Assay ID: Hs00174914_m1), GAPDH (Assay ID: Hs02786624_g1), and PPIB (Assay ID: Hs00168719_m1). The assays were run on the QuantStudio 7 Flex Real Time PCR System according to the manufacturer's instructions (Life Technologies). Relative expression of TTR mRNA was calculated by normalizing to the endogenous controls (GAPDH and PPIB) individually, and then averaged.
The groups in FIG. 29 and Table 36 are identified by the gRNA ID used in each LNP preparation.
In a separate experiment, TTR mRNA knockdown was evaluated following treatment with LNPs comprising G000480, G000486, and G000502. The LNPs were formulated and PHH were cultured and treated with the LNPs, each as described in the experiment above in this Example with the exception that the cells were treated at a dose of 100 ng (with respect to the amount of mRNA cargo delivered).
as §1, with “(single treatment” for “(with biological triplicates”, “the High Capacity cDNA Reverse Transcription Kit” for “Maxima reverse transcriptase”, “according to the manufacturer's instructions.” for “and a poly-dT primer. The resulting cDNA was purified with Ampure XP Beads (Agencourt).”, “the” for “the purified”
The groups in FIG. 30 and Table 37 are identified by the gRNA ID used in each LNP preparation.

Molecule | Max Editing [1] | Avg % Knockdown (TTR mRNA) [2]
G000493: TTR sgRNA modified sequence, Human, SEQ ID NO: 100; guide sequence of CR003368 (nucleic acid) guide: mA*mA*mG*rUrGrCrCrUrUrCrCrArGrUrArArGrArUrUrGrUrUrUrUrArGrAmGmCmUmAmGmAmAmAmUmAmGmCrArArGrUrUrArArArArUrArArGrGrCrUrArGrUrCrCrGrUrUrArUrCrAmAmCmUmUmGmAmAmAmAmAmGmUmGmGmCmAmCmCmGmAmGmUmCmGmGmUmGmCmU*mU*mU*mU | 63.95% | 87.53%
G000568: TTR sgRNA modified sequence, Human, SEQ ID NO: 110; guide sequence of CR003391 (nucleic acid) guide: mG*mG*mC*rUrGrUrCrGrUrCrArCrCrArArUrCrCrCrArGrUrUrUrUrArGrAmGmCmUmAmGmAmAmAmUmAmGmCrArArGrUrUrArArArArUrArArGrGrCrUrArGrUrCrCrGrUrUrArUrCrAmAmCmUmUmGmAmAmAmAmAmGmUmGmGmCmAmCmCmGmAmGmUmCmGmGmUmGmCmU*mU*mU*mU | 95.72% | 53.44%
G000500: TTR sgRNA modified sequence, Human, SEQ ID NO: 107; guide sequence of CR003337 (nucleic acid) guide: mC*mC*mA*rGrUrCrCrArGrCrArArGrGrCrArGrArGrGrGrUrUrUrUrArGrAmGmCmUmAmGmAmAmAmUmAmGmCrArArGrUrUrArArArArUrArArGrGrCrUrArGrUrCrCrGrUrUrArUrCrAmAmCmUmUmGmAmAmAmAmAmGmUmGmGmCmAmCmCmGmAmGmUmCmGmGmUmGmCmU*mU*mU*mU | 88.70% | 92.90%
G000490: TTR sgRNA modified sequence, Human, SEQ ID NO: 97; guide sequence of CR003366 (nucleic acid) guide: mA*mA*mA*rUrArGrArCrArCrCrArArArUrCrUrUrArCrGrUrUrUrUrArGrAmGmCmUmAmGmAmAmAmUmAmGmCrArArGrUrUrArArArArUrArArGrGrCrUrArGrUrCrCrGrUrUrArUrCrAmAmCmUmUmGmAmAmAmAmAmGmUmGmGmCmAmCmCmGmAmGmUmCmGmGmUmGmCmU*mU*mU*mU | 94.16% | 78.34%
G000489: TTR sgRNA modified sequence, Human, SEQ ID NO: 96; guide sequence of CR003344 (nucleic acid) guide: mU*mU*mU*rGrArCrCrArUrCrArGrArGrGrArCrArCrUrGrUrUrUrUrArGrAmGmCmUmAmGmAmAmAmUmAmGmCrArArGrUrUrArArArArUrArArGrGrCrUrArGrUrCrCrGrUrUrArUrCrAmAmCmUmUmGmAmAmAmAmAmGmUmGmGmCmAmCmCmGmAmGmUmCmGmGmUmGmCmU*mU*mU*mU | 86.33% | 91.85%
G000572: TTR sgRNA modified sequence, Human, SEQ ID NO: 113; guide sequence of CR003385 (nucleic acid) guide: mC*mC*mC*rCrUrArCrUrCrCrUrArUrUrCrCrArCrCrArGrUrUrUrUrArGrAmGmCmUmAmGmAmAmAmUmAmGmCrArArGrUrUrArArArArUrArArGrGrCrUrArGrUrCrCrGrUrUrArUrCrAmAmCmUmUmGmAmAmAmAmAmGmUmGmGmCmAmCmCmGmAmGmUmCmGmGmUmGmCmU*mU*mU*mU | 97.94% | 55.92%
G000481: TTR sgRNA modified sequence, Human, SEQ ID NO: 88; guide sequence of CR003345 (nucleic acid, sugars from the 5' end m3 r25 m12 r28 m32, backbone not given here; further chemistry not fully specified) guide: UCUAGAACUUUGACCAUCAGGUUUUAGAGCUAGAAAUAGCAAGUUAAAAUAAGGCUAGUCCGUUAUCAACUUGAAAAAGUGGCACCGAGUCGGUGCUUUU | 87.05% | 91.39%
